Source: article PMC8028046 (Biochemistry, 2021)

Biological target: the molecule itself
Test: SEC; elution profiles of proSP-C BRICHOS WT and T187R

B1: proSP-C BRICHOS WT (domain or fragment, human, UniProt P11686 59-197, looked up)
chain: HMSQKHTEMVLEMSIGAPEAQQRLALSEHLVTTATFSIGSTGLVVYDYQQLLIAYKPAPGTCCYIMKIAPESIPSLEALTRKVHNFQMECSLQAKPAVPTSKLGQAEGRDAGSAPSGGDPAFLGMAVSTLCGEVPLYYI
notes: human proSP-C (surfactant protein C precursor), BRICHOS domain, residues 59-197 of UniProt P11686; Mainly trimeric; The mutant's mass of 18328 Da is larger than residues 59-197 alone would give, so the construct probably carries extra residues (surmise); also called proSP-C BRICHOS domain; WT proSP-C BRICHOS domain
- binding result: binds
